To fix the notation:
B1: HSPB7ACD C131S (residues 78-162 of isoform 2) (domain or fragment)
chain: not shown
B2: FLNCd24 (domain 24 of filamin C, residues 2630-2724), wild type (domain or fragment)
chain: GSKFSSDASKVVTRGPGLSQAFVGQKNSFTVDCSKAGTNMMMVGVHGPKTPCEEVYVKHMGNRVYNVTYTVKEKGDYILIVKWGDESVPGSPFKVKV
B3: FLNCd24 Y2683E (phospho-mimic, residues 2630-2724) (domain or fragment)
chain: B2 chain with Y56E
B4: FLNCd24 T2677D (phospho-mimic, residues 2630-2724) (domain or fragment)
chain: B2 chain with T50D

The target in data set [1] is B2. As to the kind of experiment: crystal structure.
Data set [2] deals with the molecule itself. In words: native MS.
The target in data set [3] is HSPB7ΔN (residues 78-175 of isoform 2) (human, UniProt Q9UBY9-2 78-175). In words: native MS.
Data set [4] concerns the molecule itself. As to the kind of experiment: native MS. The source holds these as a separate data set.

Substitutions are numbered along the chain they refer to. Names and notes keep the numbering of the source.

As for B1, the binding result in data set [1] was “binds”.

Take B2: the Kd (commonly the constant that tells how readily two partners part at equilibrium) in “native MS [2]” worked out at 75.9 ± 8.4 nM; in data set [3] it was 6.7 ± 1.4 nM. In addition, the stoichiometry N (commonly a count of units in the complex or per binding partner) in “native MS [4]” was 2. In the case of B3, in “native MS [2]”, the affinity, expressed as Kd, was 4050 ± 557 nM. B4: binding in the data set “native MS [2]” was put at a Kd of 8.5 ± 1 nM. Against the preceding molecule, the Kd is about 480-fold lower.

The values above are taken from publication doi:10.1101/2024.01.05.574393 (bioRxiv, 2024).
